The supplement of paper PMC7877785
± gives the uncertainty stated by the source.

Assay: self-splicing fitness, log relative to wild type (ln ratio); higher = more splicing; Tetrahymena group I intron in knt gene, E. coli kanamycin selection, DiMSum; sequences stand for … in CUCUCU…GGAGGGAAAAGUUAUCAGGCAUGCACCUGGUAGCUAGUCUUUAAACCAAUAGAUUGCAUCGGUUUAAAAGGCAAGACCGUCAAAUUGCGGGAAAGGGGUCAACAGCCGUUCAGUACCAAGUCUCAGGGGAAACUUUGAGAUGGCCUUGCAAAGGGUAUGGUAAUAAGCUGACGGACAUGGUCCUAACCACGCAGCCAAGUCCUAAGUCAACAGAUCUUCUGUUGAUAUGGAUGCAGUUCACAGACUAAAUGUCGGUCGGGGAAGAUGUAUUCUUCUCAUAAGAUAUAGUCGGACCUCUCCUUAAUGGGAGCUAGCGGAUGAAGUGAUGCAACACUGGAGCCGCUGGGAACUAAUUUGUAUGCGAAAGUAUAUUGAUUAGUUUUGGAGUACUCGUGGUCG
In short: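 Six replicate transformations of E. coli BL21(DE3) with a pET-22b(+) library were grown overnight at 37°C or 30°C. The library randomised all eight P1ex-region intron nucleotides, the intron lying in the knt kanamycin-resistance gene, and plates were LB agar with or without 25 μg/mL kanamycin plus 100 μg/mL carbenicillin, 50 μM IPTG and 0.2% rhamnose. Pooled colonies were amplicon-sequenced on an Illumina HiSeq 2500, and fitness is the DiMSum error-weighted combination of wild-type-normalised replicate fold changes, kanamycin versus none.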

Row | Sequence | self-splicing fitness (ln) (30 °C) | self-splicing fitness (ln) (37 °C)
1 | GCUAAGCAAUAUUACGCUUA | -1.74 ± 0.26 | -3.17 ± 0.43
2 | GCUAAGCAAUAUUACGGACU | -1.66 ± 0.12 | -0.74 ± 0.14
3 | GCUAAGCAAUAUUACGGAGC | – | -2.4 ± 0.34
4 | GCUAAGCAAUAUUACGUAGC | -4.22 ± 0.26 | -2.16 ± 0.18
5 | GCUAAGCAAUAUUACGUAUG | -2.2 ± 0.1 | -1.12 ± 0.14
6 | GCUAAGCAAUAUUACGUGUC | -2.75 ± 0.13 | -2.22 ± 0.14
7 | GCUAAGCAAUAUUACGUUAU | -1.7 ± 0.072 | -1.48 ± 0.12
8 | GCUAAGCAAUAUUACGUUCU | -1.04 ± 0.052 | -0.467 ± 0.066
9 | GCUCAGCAAUAUUACGAAAG | -1.71 ± 0.11 | -1.93 ± 0.13
10 | GCUCAGCAAUAUUACGACCA | -0.232 ± 0.18 | -0.532 ± 0.15
11 | GCUCAGCAAUAUUACGACCC | -0.644 ± 0.14 | 0.378 ± 0.19
12 | GCUCAGCAAUAUUACGAGAA | -0.468 ± 0.12 | 0.0758 ± 0.099
13 | GCUCAGCAAUAUUACGAUGC | -1.47 ± 0.12 | -0.954 ± 0.15
14 | GCUCAGCAAUAUUACGAUUC | -0.0882 ± 0.054 | 0.832 ± 0.075
15 | GCUCAGCAAUAUUACGCAAC | -1.28 ± 0.16 | -1.07 ± 0.2
16 | GCUCAGCAAUAUUACGCAUU | -0.452 ± 0.078 | -0.0385 ± 0.1
17 | GCUCAGCAAUAUUACGCCCC | 0.441 ± 0.32 | -0.222 ± 0.41
18 | GCUCAGCAAUAUUACGCCUA | -0.718 ± 0.23 | -0.514 ± 0.22
19 | GCUCAGCAAUAUUACGCGCU | -1.42 ± 0.11 | -0.545 ± 0.14
20 | GCUCAGCAAUAUUACGGAAU | -0.424 ± 0.083 | 0.224 ± 0.12
21 | GCUCAGCAAUAUUACGGCAC | -1.11 ± 0.21 | -0.084 ± 0.21
22 | GCUCAGCAAUAUUACGGCUG | -2.99 ± 0.29 | -2.1 ± 0.34
23 | GCUCAGCAAUAUUACGGUCG | -2.35 ± 0.14 | -0.924 ± 0.14
24 | GCUCAGCAAUAUUACGUAAU | -0.739 ± 0.072 | 0.436 ± 0.092
25 | GCUCAGCAAUAUUACGUACA | -2.16 ± 0.12 | -0.932 ± 0.14

Row | Sequence | self-splicing fitness (ln) (30 °C) | self-splicing fitness (ln) (37 °C)
26 | GCUCAGCAAUAUUACGUACC | 0.00766 ± 0.067 | 0.487 ± 0.1
27 | GCUCAGCAAUAUUACGUACG | -1.72 ± 0.11 | -0.485 ± 0.09
28 | GCUCAGCAAUAUUACGUCAA | -1.84 ± 0.16 | -1.77 ± 0.22
29 | GCUCAGCAAUAUUACGUCAU | -2.27 ± 0.06 | -1.26 ± 0.074
30 | GCUCAGCAAUAUUACGUCUU | -0.48 ± 0.054 | -0.252 ± 0.066
31 | GCUGAGCAAUAUUACGACAG | -1.05 ± 0.31 | –
32 | GCUGAGCAAUAUUACGAGCU | -3.66 ± 0.34 | -1.82 ± 0.22
33 | GCUGAGCAAUAUUACGAUAU | -2.62 ± 0.28 | -1.08 ± 0.2
34 | GCUGAGCAAUAUUACGAUGA | -1.11 ± 0.13 | -1.07 ± 0.15
35 | GCUGAGCAAUAUUACGCAAG | -3.22 ± 0.3 | -2.73 ± 0.44
36 | GCUGAGCAAUAUUACGCCGC | -2.62 ± 0.34 | –
37 | GCUGAGCAAUAUUACGCGAA | – | -2.91 ± 0.37
38 | GCUGAGCAAUAUUACGCGAC | -3.36 ± 0.32 | -1 ± 0.3
39 | GCUGAGCAAUAUUACGCGCA | -1.72 ± 0.4 | –
40 | GCUGAGCAAUAUUACGCGUU | -2.22 ± 0.15 | -1.73 ± 0.22
41 | GCUGAGCAAUAUUACGGCGA | -1.43 ± 0.16 | -1.56 ± 0.2
42 | GCUGAGCAAUAUUACGGGAC | -1.25 ± 0.13 | -2.16 ± 0.22
43 | GCUGAGCAAUAUUACGGUGC | -3.9 ± 0.3 | -1.61 ± 0.22
44 | GCUGAGCAAUAUUACGGUGU | -2.14 ± 0.077 | -1.8 ± 0.091
45 | GCUGAGCAAUAUUACGUAAA | -2.97 ± 0.19 | -2.31 ± 0.17
46 | GCUGAGCAAUAUUACGUAAG | -1.55 ± 0.12 | -0.739 ± 0.16
47 | GCUGAGCAAUAUUACGUAGA | -2.41 ± 0.2 | -0.888 ± 0.21
48 | GCUGAGCAAUAUUACGUAUU | -4.1 ± 0.28 | -2.3 ± 0.22
49 | GCUGAGCAAUAUUACGUCCC | -0.877 ± 0.092 | -0.184 ± 0.11
50 | GCUGAGCAAUAUUACGUCCG | -2.38 ± 0.23 | -2.3 ± 0.31

Row | Sequence | self-splicing fitness (ln) (30 °C) | self-splicing fitness (ln) (37 °C)
51 | GCUGAGCAAUAUUACGUGUC | -2.78 ± 0.18 | -1.3 ± 0.16
52 | GCUGAGCAAUAUUACGUUGG | -2.52 ± 0.26 | -1.9 ± 0.28
53 | GCUGAGCAAUAUUACGUUUC | -1.94 ± 0.18 | -1.55 ± 0.2
54 | GCUUAGCAAUAUUACGAAGC | -4.18 ± 0.31 | -4.66 ± 0.36
55 | GCUUAGCAAUAUUACGAGAG | -1.52 ± 0.23 | -0.67 ± 0.2
56 | GCUUAGCAAUAUUACGAGCG | -2.44 ± 0.26 | -1.1 ± 0.16
57 | GCUUAGCAAUAUUACGAUAC | -1.65 ± 0.2 | 0.185 ± 0.23
58 | GCUUAGCAAUAUUACGAUGU | -0.306 ± 0.083 | -0.00189 ± 0.11
59 | GCUUAGCAAUAUUACGCAAG | – | -2.44 ± 0.34
60 | GCUUAGCAAUAUUACGCACG | -2.19 ± 0.092 | -0.388 ± 0.1
61 | GCUUAGCAAUAUUACGCCAC | -1.67 ± 0.32 | -1.17 ± 0.45
62 | GCUUAGCAAUAUUACGCUCU | -0.864 ± 0.12 | -0.504 ± 0.12
63 | GCUUAGCAAUAUUACGGACU | -0.304 ± 0.085 | 0.4 ± 0.093
64 | GCUUAGCAAUAUUACGGCUA | -0.299 ± 0.24 | -1.61 ± 0.27
65 | GCUUAGCAAUAUUACGGGGA | -1.05 ± 0.11 | -0.712 ± 0.12
66 | GCUUAGCAAUAUUACGGUAC | -1.91 ± 0.14 | -0.938 ± 0.19
67 | GCUUAGCAAUAUUACGGUCC | -0.86 ± 0.17 | 0.242 ± 0.25
68 | GCUUAGCAAUAUUACGUACU | -0.712 ± 0.1 | -0.0558 ± 0.13
69 | GCUUAGCAAUAUUACGUAGA | -0.53 ± 0.076 | 0.396 ± 0.093
70 | GCUUAGCAAUAUUACGUAGG | -1.51 ± 0.11 | -0.916 ± 0.14
71 | GCUUAGCAAUAUUACGUAUA | -1.24 ± 0.072 | -1.15 ± 0.094
72 | GCUUAGCAAUAUUACGUAUU | -0.48 ± 0.12 | 0.669 ± 0.15
73 | GCUUAGCAAUAUUACGUCGG | -1.89 ± 0.13 | -1.75 ± 0.18
74 | GCUUAGCAAUAUUACGUGCA | -1.11 ± 0.11 | -0.319 ± 0.13
75 | GCUUAGCAAUAUUACGUGGA | -2.06 ± 0.13 | -0.531 ± 0.11

Row | Sequence | self-splicing fitness (ln) (30 °C) | self-splicing fitness (ln) (37 °C)
76 | GCUUAGCAAUAUUACGUUCU | -1.03 ± 0.095 | 0.0827 ± 0.1
77 | GCUUAGCAAUAUUACGUUUU | -1.68 ± 0.068 | -0.474 ± 0.075
78 | GGAAAGCAAUAUUACGAACU | -0.854 ± 0.1 | 0.214 ± 0.12
79 | GGAAAGCAAUAUUACGAAUU | -1.96 ± 0.16 | -1.4 ± 0.12
80 | GGAAAGCAAUAUUACGACAG | -2.98 ± 0.14 | -2.17 ± 0.22
81 | GGAAAGCAAUAUUACGAGCA | -1.01 ± 0.078 | -0.54 ± 0.083
82 | GGAAAGCAAUAUUACGAGCC | -1.45 ± 0.12 | -0.842 ± 0.17
83 | GGAAAGCAAUAUUACGAUAU | -0.885 ± 0.076 | -0.58 ± 0.1
84 | GGAAAGCAAUAUUACGCCAC | -2.68 ± 0.33 | –
85 | GGAAAGCAAUAUUACGCCUG | -1.73 ± 0.34 | –
86 | GGAAAGCAAUAUUACGCGCU | -3.27 ± 0.38 | -1.37 ± 0.26
87 | GGAAAGCAAUAUUACGCUAA | -0.882 ± 0.25 | -1.08 ± 0.27
88 | GGAAAGCAAUAUUACGGACC | -2.35 ± 0.36 | -1.44 ± 0.41
89 | GGAAAGCAAUAUUACGGACU | -1.51 ± 0.27 | -0.961 ± 0.28
90 | GGAAAGCAAUAUUACGGAGA | -1.97 ± 0.27 | -2.54 ± 0.26
91 | GGAAAGCAAUAUUACGGCUC | -0.254 ± 0.13 | 0.018 ± 0.16
92 | GGAAAGCAAUAUUACGGGUG | -1.91 ± 0.14 | -1.78 ± 0.15
93 | GGAAAGCAAUAUUACGUAUU | -1.25 ± 0.13 | -1.45 ± 0.16
94 | GGAAAGCAAUAUUACGUCCA | -1.37 ± 0.28 | -0.294 ± 0.26
95 | GGAAAGCAAUAUUACGUCUA | -0.626 ± 0.11 | 0.689 ± 0.14
96 | GGAAAGCAAUAUUACGUGAU | -2.79 ± 0.086 | -1.76 ± 0.089
97 | GGAAAGCAAUAUUACGUGCA | -0.965 ± 0.075 | 0.36 ± 0.099
